# Measurements taken from the MegaScale stability set (Tsuboyama et al. 2023).
# B1: r16_88_TrROS_Hall (parent)
# chain: EVIELKIKFKTPEQREKLKEIAKKLNAEVVEEKDGEVIIRFKTPEQAERALKEAEKLGAEVEL
# Variants of: B1
# Assay: folding stability dG (cDNA display proteolysis); higher = more stable
# Settings: PBS, room temperature
row,Variant,folding stability dG [kcal/mol]
1,EVIELKIKFKTPEQREKLKEIAKKLNAEVVEEKDGEAIIRFKTPEQAERALKEAEKLGAEVEL [V37A],4.08
2,EVIELKIKFKTPEQREKLKEIAKKLNAEVVEEKDGECIIRFKTPEQAERALKEAEKLGAEVEL [V37C],4.19
3,EVIELKIKFKTPEQREKLKEIAKKLNAEVVEEKDGEDIIRFKTPEQAERALKEAEKLGAEVEL [V37D],3.02
4,EVIELKIKFKTPEQREKLKEIAKKLNAEVVEEKDGEEIIRFKTPEQAERALKEAEKLGAEVEL [V37E],3.36
5,EVIELKIKFKTPEQREKLKEIAKKLNAEVVEEKDGEKIIRFKTPEQAERALKEAEKLGAEVEL [V37K],3.31
6,EVIELKIKFKTPEQREKLKEIAKKLNAEVVEEKDGEHIIRFKTPEQAERALKEAEKLGAEVEL [V37H],4.38
7,EVIELKIKFKTPEQREKLKEIAKKLNAEVVEEKDGELIIRFKTPEQAERALKEAEKLGAEVEL [V37L],4.39
8,EVIELKIKFKTPEQREKLKEIAKKLNAEVVEEKDGEGIIRFKTPEQAERALKEAEKLGAEVEL [V37G],3.63
9,EVIELKIKFKTPEQREKLKEIAKKLNAEVVEEKDGEYIIRFKTPEQAERALKEAEKLGAEVEL [V37Y],4.14
10,EVIELKIKFKTPEQREKLKEIAKKLNAEVVEEKDGEMIIRFKTPEQAERALKEAEKLGAEVEL [V37M],4.33
11,EVIELKIKFKTPEQREKLKEIAKKLNAEVVEEKDGENIIRFKTPEQAERALKEAEKLGAEVEL [V37N],3.52
12,EVIELKIKFKTPEQREKLKEIAKKLNAEVVEEKDGEIIIRFKTPEQAERALKEAEKLGAEVEL [V37I],4.39
13,EVIELKIKFKTPEQREKLKEIAKKLNAEVVEEKDGESIIRFKTPEQAERALKEAEKLGAEVEL [V37S],4.19
14,EVIELKIKFKTPEQREKLKEIAKKLNAEVVEEKDGEFIIRFKTPEQAERALKEAEKLGAEVEL [V37F],4.55
15,EVIELKIKFKTPEQREKLKEIAKKLNAEVVEEKDGEWIIRFKTPEQAERALKEAEKLGAEVEL [V37W],4.36
16,EVIELKIKFKTPEQREKLKEIAKKLNAEVVEEKDGETIIRFKTPEQAERALKEAEKLGAEVEL [V37T],4.32
17,EVIELKIKFKTPEQREKLKEIAKKLNAEVVEEKDGEPIIRFKTPEQAERALKEAEKLGAEVEL [V37P],2.49
18,EVIELKIKFKTPEQREKLKEIAKKLNAEVVEEKDGERIIRFKTPEQAERALKEAEKLGAEVEL [V37R],3.03
19,EVIELKIKFKTPEQREKLKEIAKKLNAEVVEEKDGEQIIRFKTPEQAERALKEAEKLGAEVEL [V37Q],4.07
20,EVIELKIKFKTPEQREKLKEIAKKLNAEVVEEKDGWVIIRFKTPEQAERALKEAEKLGAEVEL [E36W],4.7
21,EVIELKIKFKTPEQREKLKEIAKKLNAEVVEEKDGYVIIRFKTPEQAERALKEAEKLGAEVEL [E36Y],4.89
22,EVIELKIKFKTPEQREKLKEIAKKLNAEVVEEKDGVVIIRFKTPEQAERALKEAEKLGAEVEL [E36V],4.36

row,Variant,folding stability dG [kcal/mol]
1,EVIELKIKFKTPEQREKLKEIAKKLNAEVVEEKDGEVVIRFKTPEQAERALKEAEKLGAEVEL [I38V],4.44
2,EVIELKIKFKTPEQREKLKEIAKKLNAEVVEEKDGEVSIRFKTPEQAERALKEAEKLGAEVEL [I38S],4.26
3,EVIELKIKFKTPEQREKLKEIAKKLNAEVVEEKDGEVHIRFKTPEQAERALKEAEKLGAEVEL [I38H],4.63
4,EVIELKIKFKTPEQREKLKEIAKKLNAEVVEEKDGEVWIRFKTPEQAERALKEAEKLGAEVEL [I38W],4.96
5,EVIELKIKFKTPEQREKLKEIAKKLNAEVVEEKDGEVQIRFKTPEQAERALKEAEKLGAEVEL [I38Q],4.33
6,EVIELKIKFKTPEQREKLKEIAKKLNAEVVEEKDGEVPIRFKTPEQAERALKEAEKLGAEVEL [I38P],1.19
7,EVIELKIKFKTPEQREKLKEIAKKLNAEVVEEKDGEVLIRFKTPEQAERALKEAEKLGAEVEL [I38L],4.25
8,EVIELKIKFKTPEQREKLKEIAKKLNAEVVEEKDGEVTIRFKTPEQAERALKEAEKLGAEVEL [I38T],4.44
9,EVIELKIKFKTPEQREKLKEIAKKLNAEVVEEKDGEVCIRFKTPEQAERALKEAEKLGAEVEL [I38C],4.3
10,EVIELKIKFKTPEQREKLKEIAKKLNAEVVEEKDGEVDIRFKTPEQAERALKEAEKLGAEVEL [I38D],3.82
11,EVIELKIKFKTPEQREKLKEIAKKLNAEVVEEKDGEVKIRFKTPEQAERALKEAEKLGAEVEL [I38K],3.82
12,EVIELKIKFKTPEQREKLKEIAKKLNAEVVEEKDGEVGIRFKTPEQAERALKEAEKLGAEVEL [I38G],3.78
13,EVIELKIKFKTPEQREKLKEIAKKLNAEVVEEKDGEVYIRFKTPEQAERALKEAEKLGAEVEL [I38Y],4.76
14,EVIELKIKFKTPEQREKLKEIAKKLNAEVVEEKDGEVRIRFKTPEQAERALKEAEKLGAEVEL [I38R],4.28
15,EVIELKIKFKTPEQREKLKEIAKKLNAEVVEEKDGEVMIRFKTPEQAERALKEAEKLGAEVEL [I38M],4.51
16,EVIELKIKFKTPEQREKLKEIAKKLNAEVVEEKDGEVFIRFKTPEQAERALKEAEKLGAEVEL [I38F],4.96
17,EVIELKIKFKTPEQREKLKEIAKKLNAEVVEEKDGEVNIRFKTPEQAERALKEAEKLGAEVEL [I38N],4.24
18,EVIELKIKFKTPEQREKLKEIAKKLNAEVVEEKDGEVAIRFKTPEQAERALKEAEKLGAEVEL [I38A],4.26
19,EVIELKIKFKTPEQREKLKEIAKKLNAEVVEEKDGEVEIRFKTPEQAERALKEAEKLGAEVEL [I38E],3.67
20,EVIELKIKFKTPEQREKLKEIAKKLNAEVVEEKDGEVIIRAKTPEQAERALKEAEKLGAEVEL [F41A],4.49
21,EVIELKIKFKTPEQREKLKEIAKKLNAEVVEEKDGEVIIREKTPEQAERALKEAEKLGAEVEL [F41E],0.961
22,EVIELKIKFKTPEQREKLKEIAKKLNAEVVEEKDGEVIIRCKTPEQAERALKEAEKLGAEVEL [F41C],4.28

row,Variant,folding stability dG [kcal/mol]
1,EVIELKIKFKTPEQREKLKEIAKKLNAEVVEEKDGEVIIRGKTPEQAERALKEAEKLGAEVEL [F41G],3.01
2,EVIELKIKFKTPEQREKLKEIAKKLNAEVVEEKDGEVIIRHKTPEQAERALKEAEKLGAEVEL [F41H],3.13
3,EVIELKIKFKTPEQREKLKEIAKKLNAEVVEEKDGEVIIRDKTPEQAERALKEAEKLGAEVEL [F41D],0.465
4,EVIELKIKFKTPEQREKLKEIAKKLNAEVVEEKDGEVIIRIKTPEQAERALKEAEKLGAEVEL [F41I],4.16
5,EVIELKIKFKTPEQREKLKEIAKKLNAEVVEEKDGEVIIMFKTPEQAERALKEAEKLGAEVEL [R40M],4.64
6,EVIELKIKFKTPEQREKLKEIAKKLNAEVVEEKDGEVIINFKTPEQAERALKEAEKLGAEVEL [R40N],4.13
7,EVIELKIKFKTPEQREKLKEIAKKLNAEVVEEKDGEVIILFKTPEQAERALKEAEKLGAEVEL [R40L],4.5
8,EVIELKIKFKTPEQREKLKEIAKKLNAEVVEEKDGEVIICFKTPEQAERALKEAEKLGAEVEL [R40C],4.37
9,EVIELKIKFKTPEQREKLKEIAKKLNAEVVEEKDGEVIIYFKTPEQAERALKEAEKLGAEVEL [R40Y],4.86
10,EVIELKIKFKTPEQREKLKEIAKKLNAEVVEEKDGEVIIWFKTPEQAERALKEAEKLGAEVEL [R40W],4.77
11,EVIELKIKFKTPEQREKLKEIAKKLNAEVVEEKDGEVIISFKTPEQAERALKEAEKLGAEVEL [R40S],4.38
12,EVIELKIKFKTPEQREKLKEIAKKLNAEVVEEKDGEVIITFKTPEQAERALKEAEKLGAEVEL [R40T],4.79
13,EVIELKIKFKTPEQREKLKEIAKKLNAEVVEEKDGEVIIQFKTPEQAERALKEAEKLGAEVEL [R40Q],4.07
14,EVIELKIKFKTPEQREKLKEIAKKLNAEVVEEKDGEVIIEFKTPEQAERALKEAEKLGAEVEL [R40E],3.93
15,EVIELKIKFKTPEQREKLKEIAKKLNAEVVEEKDGEVIIDFKTPEQAERALKEAEKLGAEVEL [R40D],3.83
16,EVIELKIKFKTPEQREKLKEIAKKLNAEVVEEKDGEVIIKFKTPEQAERALKEAEKLGAEVEL [R40K],4.27
17,EVIELKIKFKTPEQREKLKEIAKKLNAEVVEEKDGEVIIFFKTPEQAERALKEAEKLGAEVEL [R40F],4.66
18,EVIELKIKFKTPEQREKLKEIAKKLNAEVVEEKDGEVIIPFKTPEQAERALKEAEKLGAEVEL [R40P],2.96
19,EVIELKIKFKTPEQREKLKEIAKKLNAEVVEEKDGEVIIHFKTPEQAERALKEAEKLGAEVEL [R40H],4.04
20,EVIELKIKFKTPEQREKLKEIAKKLNAEVVEEKDGEVIIGFKTPEQAERALKEAEKLGAEVEL [R40G],4.15
21,EVIELKIKFKTPEQREKLKEIAKKLNAEVVEEKDGEVIIVFKTPEQAERALKEAEKLGAEVEL [R40V],4.64
22,EVIELKIKFKTPEQREKLKEIAKKLNAEVVEEKDGEVIIIFKTPEQAERALKEAEKLGAEVEL [R40I],4.47

row,Variant,folding stability dG [kcal/mol]
1,EVIELKIKFKTPEQREKLKEIAKKLNAEVVEEKDGEVIIAFKTPEQAERALKEAEKLGAEVEL [R40A],4.3
2,EVIELKIKFKTPEQREKLKEIAKKLNAEVVEEKDGEVICRFKTPEQAERALKEAEKLGAEVEL [I39C],4.35
3,EVIELKIKFKTPEQREKLKEIAKKLNAEVVEEKDGEVIPRFKTPEQAERALKEAEKLGAEVEL [I39P],0.941
4,EVIELKIKFKTPEQREKLKEIAKKLNAEVVEEKDGEVIGRFKTPEQAERALKEAEKLGAEVEL [I39G],3.23
5,EVIELKIKFKTPEQREKLKEIAKKLNAEVVEEKDGEVIKRFKTPEQAERALKEAEKLGAEVEL [I39K],1.68
6,EVIELKIKFKTPEQREKLKEIAKKLNAEVVEEKDGEVIMRFKTPEQAERALKEAEKLGAEVEL [I39M],4.65
7,EVIELKIKFKTPEQREKLKEIAKKLNAEVVEEKDGEVIARFKTPEQAERALKEAEKLGAEVEL [I39A],4.41
8,EVIELKIKFKTPEQREKLKEIAKKLNAEVVEEKDGEVISRFKTPEQAERALKEAEKLGAEVEL [I39S],3.19
9,EVIELKIKFKTPEQREKLKEIAKKLNAEVVEEKDGEVIERFKTPEQAERALKEAEKLGAEVEL [I39E],2.69
10,EVIELKIKFKTPEQREKLKEIAKKLNAEVVEEKDGEVIYRFKTPEQAERALKEAEKLGAEVEL [I39Y],5
11,EVIELKIKFKTPEQREKLKEIAKKLNAEVVEEKDGEVILRFKTPEQAERALKEAEKLGAEVEL [I39L],4.67
12,EVIELKIKFKTPEQREKLKEIAKKLNAEVVEEKDGEVIHRFKTPEQAERALKEAEKLGAEVEL [I39H],3.68
13,EVIELKIKFKTPEQREKLKEIAKKLNAEVVEEKDGEVIDRFKTPEQAERALKEAEKLGAEVEL [I39D],0.533
14,EVIELKIKFKTPEQREKLKEIAKKLNAEVVEEKDGEVINRFKTPEQAERALKEAEKLGAEVEL [I39N],2.82
15,EVIELKIKFKTPEQREKLKEIAKKLNAEVVEEKDGEVIRRFKTPEQAERALKEAEKLGAEVEL [I39R],0.96
16,EVIELKIKFKTPEQREKLKEIAKKLNAEVVEEKDGEVIQRFKTPEQAERALKEAEKLGAEVEL [I39Q],3.99
17,EVIELKIKFKTPEQREKLKEIAKKLNAEVVEEKDGEVITRFKTPEQAERALKEAEKLGAEVEL [I39T],3.95
18,EVIELKIKFKTPEQREKLKEIAKKLNAEVVEEKDGEVIFRFKTPEQAERALKEAEKLGAEVEL [I39F],4.92
19,EVIELKIKFKTPEQREKLKEIAKKLNAEVVEEKDGEVIVRFKTPEQAERALKEAEKLGAEVEL [I39V],4.44
